Results published in paper PMC8310357.

Molecular target: Ostreolysin A6 (Pleurotus ostreatus) (UniProt P83467)
UniProt P83467, sequence (P83467 whole entry): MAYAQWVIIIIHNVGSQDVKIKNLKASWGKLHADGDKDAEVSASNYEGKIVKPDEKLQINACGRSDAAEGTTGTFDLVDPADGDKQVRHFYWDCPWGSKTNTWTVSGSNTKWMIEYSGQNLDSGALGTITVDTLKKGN

Δ48EryB (erylysin B) (natural protein) was tested, and the haemolysis of bovine erythrocytes, aegerolysin/MACPF-protein 12.5/1, 25 °C; against OlyA6/PlyB was 90 % lower.
